assay: label from the status in PepcDB records

Row | Sequence | protein production
1 | SCEKENIGIEVTPVNAKFIITPVVIDATTGTDVTQSAEISFSKGNGTYEGTPELASESININAKYKGMTGSASVTIPALKAGQFGAKEVTIILSENFFAQEESSNSQIETTKHSGFKNNTSDYWYYITVTYTKKEGSEVIKNDYEGDDSEIKNIIDAYNKGVREDKVTLNDVQVLAHSRFSVFVDYMKTTSVYQIIEKSPKRDGNPVASFTVDSYNTIVSPKNEQIPGHGHAPSHGHGHGHGDDSNAGGGIIIAD | not failed
2 | SDESDLPSAMPAVPAFGVEERNMVSGVLTLAERSIRSIMTPRTDVSWVNIDDDAATIRQQLTAAPHSFFPVCRGSLDEVVGIGRAKDLVADLITEGRVRRNRLRDPIIVHESIGILRLMDTLKRSRGQLVLVADEFGAIEGLVTPIDVFEAIAGEFPDEDELPDIVA | failed
3 | SDESGMRTYVRTLSFILSKAVADILPGSKLFIEHSLSNGYYCQIKNAHMITPGEIVRIKERMESLIVADIPFRAHCERTEEVAAMFRSMGYEDKADLLETKGMP | failed
4 | SDNLSSEEIQQRAHQITDESLESTRRILGLAIESQDAGIKTITMLDEQKEQLNRIEEGLDQINKDMRETEKTLTELNKCCGLCVCPCNRTKNFESGKAYKTTWGDGGENSPCNVVSKQPGPVTNGQLQQPTTGAASGGYIKRITNDAREDEMEENLTQVGSILGNLKDMALNIGNEIDAQNPQIKRITDKADTNRDRIDIANARAKKLIDS | not failed
5 | SETRSPGLNNMKPQSLQLVLEEQVLALQQQMAENQAASWRKLKNSQEAQQRQATLVRKLQAKVLQYRSWCQELEKRLEATGGPIPQRWENVEEPNLDELLVRLEEEQQRCESLAEVNTQLRLHMEKADVVNKALREDVEKLTVDWK | failed
6 | SFKPVMQKFLHDHVDLQVSALYALQVHCYNSNFPKGMLLRFFVHFYDMEIIEEEAFLAWKEDITQEFPGKGKALFQVNQ | failed
7 | SGGTLRIYADSLKPNIPYKTILLSTTDTADFAVAESLEKYGLEKENPKDYCIARVMLPPGAQHSDERGAKEIILDDDECPLQIFREWPSDKGILVFQLKRRPP | not failed
8 | SGILFMSKVGLRGDRRSEGDEVLDPLRQALDSSMQSHNLYQHPQHLAFHVSAPVASTVQQASGLLGPLPHLSSFALQPAHSLLPPLGSHGAGFQENGAKAES | not failed
9 | SHIIVIGAGITGVTSAYELIKLGFQVTVIDRHLFPAMETSFANGGQLSACNAEVWNQRSTISKGIKWMSKKDAPLLLNPSFNLHKYSWLFEFLSHIKHYEQNTIETVRLALLARKRLFEIAEIENIDFNLERRGILHIYHTPSDYEIAKNVNDLLNKATLHRYQVNPDEIKTIEPALSGEYCGGYYTPDDATGDIHKFCVGLADSSKRDGVDYKFGWDVNQIELLEKGVIVSCIPSTENMTEPSSQHLRLEADGIVVCGGVGSYQLAHMLGDRVNVYPVKGYSITVHLNDEHSIENAPWVSLLDESAKIVTSRLGKDRLRVAGTAEFNGYNRDIRADRIQPLINWVNANFEISTEHVVPWSGLRPMMPNMMPVVRQGKHPRVFYNTGHGHLGWTLSAATAAIIGQEIQSKIP | failed
10 | SHRSAAAFVDAERELFVRDQPIGPDDRVLAGLSVAFDASCEEMWLAWGHGACLVPAPRSLVRTGLDLGPWLISRDISIVSTVPTLAGMWPAEALDNVRLLILGGEACSAELVARVASSRREVWNTYGPTEATVVTCAARLEAGQPVAIGLPLAG | failed
11 | SKALLFVIIGSVLVMLLLVGVIIMLLMGNKEESKENASKNTQEVQANPMANKNQEAKEGSNIQQYLVLGPLYAIDAPFAVNLVSQNGRRYLKASISLELSNEKLLNEVKVKDTAIKDTIIEILSSKSVEEVVTNKGKNKLKDEIKSHLNSFLIDGFIKNVFFTDFIIQ | failed
12 | SKCLERFGPFYLLYKDRLSFVNADASELTFHPDTAVLRLKAPHDALISLLGQSPKSILDTTMGLASDSLVMAAVRNRVTALESQEVIFQVVSRGLATYQTDNKQIEKAMRSIKAVKSDSLTFLKSQTDHSFDIIYADPMFSETIKESENLNAIKPLANGSRLTREWLDEAKRVGRERIIIKAHFRDSVFEELGFERQVRP | failed
13 | SKGMALRSVGGMVIESPRNETEHWLLETVGRQAQQAGIGMPTVAIYDSADINAFATGAKRDDSLVAVSTGLLHNMTRDEAEAVLAHEVSHIANGDMVTMTLMQG | not failed
14 | SKSTKNDVKITALSTSESQIISHMLRLLIEHDTHGKIKPTLVNNLGSSTIQHNALINGDANISGVRYNGTDLTGALKEAPIKDPKKAMIATQQGFKKKFDQTFFDSYGFANTYAFMVTKETAKKYHLETVSDLAKHSKDLRLGMDSSWMNRKGDGYEGFKKEYGFDFGTVRPMQIGLVYDALNTEKLDVALGYSTDGRIAAYDLKVLKDDKQFFPPYAASAVATNELLRQHPELKTTINKLTGKISTSEMQRLNYEADGKGKEPAVVAEEFLKKHHYFD | not failed
15 | SLDPVSQSKLEQAIHDQIPQLAKTAGKDLEAAAIAVDRHSGEIRAMVGGKRTGYDGFNRVLNASRQIGSLVKPAVYLTALAHPDQYNLATTLEDKPLTLKGSEGSAWTPRNYDRQYRGEVPLYLALAQSLNVPTVALGMKLGIDQVSATLGKLGVNRDEIRPVPSMLLGSFSLTPYQVAQMYQTLTNSGKKAPLSALRSVLDLEGNVLYESLPRVSQAVDQQAAWLTTYAMKQGVQEGTGRYLNAQFSSAALAGKTGTTNDNRDSWFVGVDGREVTTIWLGRDDNQPTKLTGASGALRVYAQYLKYRIPEKLQLPW | failed
16 | SLENAGSRPFLADFNGFSYLELKGLHTFERDLGEKMALEMVFLARGPSGLLLYNGQKTDGKGDFVSLALHNRHLEFRYDLGKGAAIIRSKEPIALGTWVRVFLERNGRKGALQVGDGPRVLGESPVPHTMLNLKEPLYVGGAPDFSKLARGAAVASGFDGAIQLVSLRGHQLLTQEHVLRAVDVAPFAG | not failed
17 | SLEPAQANMDISTGHMILAYMEDHLRNRDRLAKEWQALCAYQAEPNTCATAQGEGNIKKNRHPDFLPYDHARIKLKVESSPSRSDYINASPIIEHDPRMPAYIATQGPLSHTIADFWQMVWESGCTVIVMLTPLVEDGVKQCDRYWPDEGASLYHVYEVNLVSEHIWCEDFLVRSFYLKNVQTQETRTLTQFHFLSWPAEGTPASTRPLLDFRRKVNKCYRGRSCPIIVHCSDGAGRTGTYILIDMVLNRMAKGVKEIDIAATLEHVRDQRPGLVRSKDQFEFALTAVAEEVNAILKALPQ | not failed
18 | SLGDQKPATIYAPTVRVTPNPAWPQVSWQLLVAKPSAARIIDSPRINVRPTPGELQVYHGAGWAQPATDMLEDSVVRAFEDSGKIAAVARIGAGIRSDYKLAIDVRRFESDYAGQSLPAATIELNAKLLHSSDQRVVASRTFTVARPSSSTDTAAVAAAFEQALTQVTTELVGWTLITGQQDSQTLPRAL | not failed
19 | SLGELFAVFNEKLTIPEQEALMFLYAYMPTGDVTDYTGDYYLENVRLSDQARREMPWGKEIPDDVFRHFVLPIRVNNENLDDSRRVFYNELKDRVKNLSLHDAVLEVNHWCHEKVIYTPSDARTSAPLASVKTAYGRCGEESTFTVAALRSVGIPARQVYTPRWAHTDDNHAWVEAWVDGKWYFFGACEPEPVLNLGWFNAPASRGMLMHTKVFGRYTGQEEIMYETPNYTEINVIDNYAPTAKGSVLVTDAEGQPVADATVEFKVYNYAEFYTVATKHTDRSGHASLTAGKGDMLVWASKDGRFGYSKLSFGKDNELKITLDKNASETYSLPLDIVPPAEGANLPEVTPEQRTENDRRMAQEDSIRNAYVATFITEEQARTFAKENKLDETETVRLLIASRGNHQTLTDFLSDAVKADKAGQAISLLKVVSAKDLRDVSPEVLNDHLNNSGLPASEDFCSNVLNPRVANEMITPYKAFFRKEIPASEAEAFRKNPQALVEWCKKEITINNELNSQRIPMSPMGVWKARVADEKSRNIFFVSMARSLGIPAWIDEVTGKIQYRTFNDNNLKNGKVYDVDFEAAQQTQAPTGTLVARYRPIPSLSDPKYYSHFTLSKFRNGTFQLLNYDEGDVDMGGGATWSNLLKNGARLDTGYYMMVTGTRMASGAVLANVTFFTIEEGKTTTVDLVMRESKDQVQVIGNFNSESTYLPIGTSEPQSILQTCGRGYYVVAVLGAGQEPTNHALRDIAALSGEFEKWGRKMVLLFPSEEQYKKFRPSEFPGLPSTITYGIDVDGAIQKQIAESMKLPNSTILPMFIIGDTFNRVVFVSQGYTIGLGEQLMKVIHGEG | not failed
20 | SLGEMKRAAIIIDDFGGDVKGVDDFLTGEIPVTVAVMPFLEHSTKQAEIAQAAGLEVIVHMPLEPKKGKISWLGPSGITSNLSVGEVKSRVRKAFDDIPYAVGLNNHMGSKIVENEKIMRAILEVVKEKNAFIIDSGTSPHSLIPQLAEELEVPYATRSIFLDNTHSSRKEVIKNMRKLAKKAKQGSEPIGIGHVGVRGDETYAGIRSMLDEFQAESIQLVPVSQLLPSPIEEDHNKFWQQPFQAKE | not failed
21 | SLHEEADHRVTDHGPRPFVVNIEDETKRNRAFRRALWTGDHLQVTLMSIQVGEDIGLEIHPHLDQFLRVEEGRGLVQMGHRQDNLHFQEEVFDDYAILIPAGTWHNVRNTGNRPLKLYSIYAPPQHPHGTVHETKAIAMAAEEHHHL | not failed
22 | SLIGFLSDRQGFEKQYHDIDLSSFGIREGISEIIASTGFEHPNAAPIGIVMKGERPFVRLFKGSHTWENVLKEKCLASNVVYDPILFVRSTFSDLVPSEFEYVDAGEFKFPVLKEAIAWVVFECINLRNTDQSLVADLVPLNAGFNERNIKELPVPNRGFNAVLEATVHATRYQLTGEEKYLELIRHYESLASKCGGDAEKKAMKLIYEALGL | not failed
23 | SLKRKLKPKRLQLPPQDVVFEGEAAMNEYTFYRNWVESWLQHIRSYYLLFIDGDPSLSKFFEIEICAHSWKRSTFDQQVFKFGLLWECVDIARSRTVYWQCALGTGHIQEDKVSEATSPFTDDSCTNSCLSRMTGQ | failed
24 | SLLCGPLRLSESGETWSEVWAAIPMSDPQVLHLQGGSQDGRLPRTIPLPSCKLSVPDPEERLDSGHVWKLQWAKQSWYLSASSAELQQQWLETLSTAAH | not failed
25 | SLMDVKCETPNCPFFMSVNTQPLCHECSERRQKNQN | not failed
26 | SLSSTELGDLFWSWLRDGLREGDIPVNTADACVHLTCGFVFISVPGVFFLFLKSHSRSCSSGLKESGRKEQVQAAFEKMRKHRVSDSRRFWQCCLYEEPGGRGRYKKLTGYLIKMSEIYANGNFPDDSLFLKVIN | not failed
27 | SLSTVELSGTVVKQGYLAKQGHKRKNWKVRRFVLRKDPAFLHYYDPSKEENRPVGGFSLRGSLVSALEDNGVPTGVKGNVQGNLFKVITKDDTHYYIQASSKAERAEWIEAIKKLT | not failed
28 | SLYGNSSGGTLLTTTKEGQGKDSVELNYSGGSHDKNRTGLILQGGAKQSNQPSYVISSSYFDTDGYREHSAAHKILNNAKLTWNLDDGSKINWITNYVKINADDPQGLTRDQWKANPKQQVPFLQQFDVRKDIEQTQTGVTWSKPINDQNELYMMGYLGNRKVTQYQSIPKSTQDASKNQAGGVIDFERNYYGADLRWTGKELLPNTTFSVGVALDAMDEDRKGYENYVTVNNQPSYGVKGNLRRDEDNTLWNIDPYLQASWQFLPTWRLDTGVRYSNVHYKSDDHFIVIGNTAKDSNPDDSGKTDYSKVLPSAALSWQIVPELLAYVSYAKGFETPTFTEMAYNPDPDLSGFNFGLKASTSDTYEAGLKSQNRLGDFTLAAFQTKTKDDIVSAGSINGRATFRNADRTLREGIEFTWNKQLWRDLVLNTSYAYLNATFDADVPATASVAAITSGNQIPGVAKNQAYASLAWKPQTGFHGGIDAQYNDKIYVDDKNSDAAPSYTVVAAYAGYTWQMQDWKLNVYSRVDNMFDKSYVGSVIVNDGNSRFFEPADGRNWSAGLRVSKQF | failed

— a protein production outcome set (Wang et al. 2014)
